This note sets out measurements from the supplement of paper PMC9170038.

The series has as its system MS2 coat protein. In words: apparent KD of MS2 coat protein; designed switch direction (-1 OFF switch, 1 ON switch): 1; higher = weaker reporter binding. The procedure, abridged:
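RNA switches sharing common flanks were transcribed by stalled E. coli RNA polymerase on Illumina chips. A doubling series of SNAP-549-labelled MS2 coat protein, from 0.7 or 1.5 nM to 3 µM, was applied in Tris-HCl pH 7.5 buffer with KCl, MgCl2, BSA, DTT, tRNA and Tween-20. Each step lasted 0.8–1.5 h at the bottom of the series and 10–20 min at the top. Normalised cluster fluorescence was curve-fitted, giving apparent KD as the per-design median over clusters.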

Setting [1] is: input ligand: microRNA oligo, concentration not stated.
The mark [2] stands for this setting: Eterna round: R95, input ligand: FMN 200 uM.
[3] abbreviates: Eterna round: R95, input ligand: microRNA oligo, concentration not stated.
Where [4] appears, read: Eterna round: R95, input ligand: none.

Take “GUUACAUGAGGAUCACCCAUGUGUGUGUGGGAGUAAGUGUCUUAGGAUAUCUAUGAUUUAAGUUAAGAGAAGGAAGAUUGUUGU [SS-NG3-LRO01] (Eterna round: R96, puzzle: Same State NG 3)”: the “apparent KD of MS2 coat protein” value stood at 479 nM (input ligand: FMN 200 uM), 261 nM under setting [1] and 395 nM (input ligand: none).
On the same counts, the results for “AAAUAAAACACAGGAUAUGCAGUCAAAACGACGGCAGAAGGGUGAGACAUGAGGAUCACCCAUGUACACAUCCCACGGAUGUGC [Anonised] (Eterna round: R96, puzzle: Same State NG 1)” are 1060 nM, 546 nM and 1060 nM.
Consider “AUCAAAACAAGUUGCAGUGUUCGUCUUUCACAUGAGGAUCACCCAUGUAAUAGCCCAGUGGAAGCGCUCGGGCUACC [Esgevexe] (puzzle: Sensor for hsa-mir-208a)”, for which the “apparent KD of MS2 coat protein” value was 38.7 nM under setting [2], 25.6 nM under setting [3] and 47.9 nM under setting [4].
On the same counts, the results for “GAGUAGGACUUACAGGAUAUAUGGAGGUUGACAUGAGGAUCACCCAUGUCUGAGUUGAGAGGAGGAUAGAAGGGUAUGGGAGGCG [JR_SS2_Sub030] (puzzle: Same State 2)” are 23.4 nM, 16.5 nM and 22.4 nM.
With “CGUAGGUAGCUGGAGGAUAUUCGAGUGGUAACAUGAGGAUCACCCAUGUGGUGAGAGGAACAUGAGGAGAAGGCUAGCUGCCUGC [JL-ss2-3.15 JL mod] (Eterna round: R96, puzzle: Same State 2)”, the “apparent KD of MS2 coat protein” value (input ligand: FMN 200 uM) is 1290 nM, the “apparent KD of MS2 coat protein” value under setting [1] amounted to 925 nM and the “apparent KD of MS2 coat protein” value (input ligand: none) amounted to 906 nM.
As to “GCUCAUAGUAUAUGGGUACAAGCUUUUUGACAUGAGGAUCACCCAUGUACUCGUCUUAUGUGCAGUCCGUAGACUGC [JL-shm-2.21 Brourd mod] (puzzle: Sensor for hsa-mir-208a)”, the “apparent KD of MS2 coat protein” value reads like this: under setting [2], 104 nM; under setting [3], 17.3 nM; under setting [4], 137 nM.
In the case of “AAAGAAAACAUAGGAUAUGUAACAUGAGGAUCACCCAUGUAUACCUCGUAAGAGAUGAUGGAUGGACAGAAGGAUGAUCUCAGG [Default title] (Eterna round: R96, puzzle: Same State NG 2)”, the “apparent KD of MS2 coat protein” value under setting [1] is 111 nM.
With “GUUACAUGAGGAUCACCCAUGUAUGUGUGGGAGUAAGUGUCUUAGGAUAUCUAUUGUUUAAAUUAAGAGAAGGAAGAUUGUUGU [JMF's solution 13] (Eterna round: R96, puzzle: Same State NG 3)”, the “apparent KD of MS2 coat protein” value is, setting by setting: (input ligand: FMN 200 uM) 102 nM; under setting [1], 84.3 nM; (input ligand: none) 117 nM.
Turning to “GGUGCAAUUAACGCCUACAUGAGGAUCACCCAUGUAUGUAGGCAGGAUAUCGUUUGCAAAGCAAACGAGAAGGGCUAUAGUACC [Mat - Same State NG 3 - JL Mod - D43] (Eterna round: R96, puzzle: Same State NG 3)”, the “apparent KD of MS2 coat protein” value runs as follows: (input ligand: FMN 200 uM) 66.9 nM; under setting [1], 256 nM; (input ligand: none) 188 nM.
On the same counts, the results for “UAACGCGCAUGCAAGGAUAUGUGCAGAGCUACAUGAGGAUCACCCAUGUGGUUAUGCUAUUGAAAACAGAAGGUGCCCUCGCUCA [Ceties] (Eterna round: R96, puzzle: Same State 2)” are 20.7 nM, 16.4 nM and 22.7 nM.
As to “UAGUAUUAACGAGGAUAUAAUAUGUUCAAUUUUUUAUAUUGUUUACAUGAGGAUCACCCAUGUUAUUAGAAGGCGUAUGGGAUU [JR_SSNG2_Sub082] (Eterna round: R96, puzzle: Same State NG 2)”, the “apparent KD of MS2 coat protein” value under setting [1] was found to be 50.9 nM.
Take “CUCCGGAUUGACAUGAGGAUCACCCAUGUGCCCUCAUUAAAGUAGGAUAUACCUCGCAGUCGGGAGUAGAAGGACUUUAUGAGU [Eternabot solution 36] (Eterna round: R96, puzzle: Same State NG 3)”: the “apparent KD of MS2 coat protein” value (input ligand: FMN 200 uM) came to 204 nM, the “apparent KD of MS2 coat protein” value under setting [1] worked out at 91.1 nM and the “apparent KD of MS2 coat protein” value (input ligand: none) is 213 nM.
In the case of “AAAAGAAACAUGUACCUGAGUACAUGAAAACAUGAGGAUCACCCAUGUAACAAGUUGGGUGCUUGUCUUAUAAGAAA [JL pocket 4] (Eterna round: R96, puzzle: Sensor for hsa-mir-208a)”, the “apparent KD of MS2 coat protein” value by setting is: (input ligand: FMN 200 uM) 710 nM; under setting [1], 66.7 nM; (input ligand: none) 822 nM.
As for “AAUUUAAUACAUGAGGAUCACCCAUGUAAUACUUGUAAGAUCAAGGAUAUCAGCUCGAAUAGAGCUGAGAAGGUGAUCACAUGU [SSNG3/19-D1] (Eterna round: R96, puzzle: Same State NG 3)”, the “apparent KD of MS2 coat protein” value under setting [1] stood at 24.9 nM.
As to “UGAACCUUCACAGGAUAUCAUGCGAAAAUUGCGUGAGAAGGGUGGAUGUGGUGUUCAUAGUUGCACAUGAGGAUCACCCAUGUA [SameState NG1 #51] (Eterna round: R96, puzzle: Same State NG 1)”, the “apparent KD of MS2 coat protein” value by setting is: (input ligand: FMN 200 uM) 115 nM; under setting [1], 124 nM; (input ligand: none) 237 nM.
Consider “GUUAAACAUGAGGAUCACCCAUGUCAAUGUAGUCGAGGAUAUGGGUAGCUAUGAGGCGUACUAGAAGGCGAGGAGU [Mat - Same State 1 - Mod of JL - D16] (puzzle: Same State 1)”, for which the “apparent KD of MS2 coat protein” value reads like this: under setting [2], 194 nM; under setting [3], 57.1 nM; under setting [4], 164 nM.
With “AAUAACAAUUUAGGAUAUCGACAGCGAAACUCACGAGAAGGAGAUAAGAGGCUGGCCUCGCGCACAUGAGGAUCACCCAUGUCG [Eternabot solution 25] (Eterna round: R96, puzzle: Same State NG 1)”, the “apparent KD of MS2 coat protein” value by setting is: (input ligand: FMN 200 uM) 38.1 nM; under setting [1], 29.8 nM; (input ligand: none) 41.1 nM.
Taken in the same sequence, the figures for “GUUACAUGAGGAUCACCCAUGUAUGUGUGGGAGUAAGUGUCUUAGGAUAUCUAUAAUUUAAAUUAAGAGAAGGAAGAUUGUUGU [JMF's solution 10] (Eterna round: R96, puzzle: Same State NG 3)” were 121 nM, 69.4 nM and 115 nM.
As for “UAGAGAGGAAGCGAGGAUAUCGUGUUAGGUACAUGAGGAUCACCCAUGUUUUAAGUAGAGAUAGGCGAGAAGGCGCAGGAGAAAA [JR_SS2_Sub088] (puzzle: Same State 2)”, the “apparent KD of MS2 coat protein” value under setting [2] came out at 28.6 nM, the “apparent KD of MS2 coat protein” value under setting [3] was found to be 26.7 nM and the “apparent KD of MS2 coat protein” value under setting [4] came to 30.2 nM.
With “GUUACAUGAGGAUCACCCAUGUAUGUGUGGGAGUAAGUGUCUUAGGAUAUCUAGUAUUCAAUUUAAGAGAAGGAAGAUUGUUGU [JMF's solution 58] (Eterna round: R96, puzzle: Same State NG 3)”, the “apparent KD of MS2 coat protein” value runs as follows: (input ligand: FMN 200 uM) 109 nM; under setting [1], 64.2 nM; (input ligand: none) 93.9 nM.
“UUGCGCUGUCGAGAGGAUAUGCGGUGUUGGACAUGAGGAUCACCCAUGUUAGCGAUUGCUUUACGGUAGAAGGCUCUUCAGCUGC [salish99_ss2_r3_098] (puzzle: Same State 2)”: under setting [3], the “apparent KD of MS2 coat protein” value is 63.5 nM.
For “AGGAAGGAGGCUGAGGAUAUCGUAAGGAGGACAUGAGGAUCACCCAUGUGUAUAGGAUUGGAGGACGAGAAGGCAGAGGAGUGGG [JR_SS2_Sub049] (puzzle: Same State 2)”, the “apparent KD of MS2 coat protein” value was 49.8 nM under setting [2], 25 nM under setting [3] and 29.4 nM under setting [4].
Turning to “GGUAGGUUACUACCAACACAUGAGGAUCACCCAUGUUUUGGGAAGGAUAUGGUACCUAUUUGGUACCAGAAGGUCCAGUUAAUU [Fiskers NG3ss - 17] (Eterna round: R96, puzzle: Same State NG 3)”, the “apparent KD of MS2 coat protein” value runs as follows: (input ligand: FMN 200 uM) 47.4 nM; under setting [1], 66.6 nM; (input ligand: none) 69.5 nM.
For the sequence “GUGCUCGUGUGAGGAUAUGCCGCCGUUUCGGCUGCAGAAGGUGCUACGUUACAUGAGGAUCACCCAUGUCUCUGUUGUUUCGUG [salish99_SSNG1_r04_943] (Eterna round: R96, puzzle: Same State NG 1)”, under setting [1], the “apparent KD of MS2 coat protein” value was found to be 17.9 nM.
For “GAGAGAGGGUGAGGAUAUUGAGUAAUAAUGAUACAAGAAGGCACAGACAUGAGGAUCACCCAUGUGGGAAUAAUCCAGAGAGAG [Parity 6 - Jieux - Same State NG 1] (Eterna round: R96, puzzle: Same State NG 1)”, the “apparent KD of MS2 coat protein” value reads like this: (input ligand: FMN 200 uM) 262 nM; under setting [1], 153 nM; (input ligand: none) 289 nM.
Turning to “GCCGCGUUUCGCGCCUACAUGAGGAUCACCCAUGUAUGUGGGCAGGAUAUCGUUUGCUUUGCAAACGAGAAGGGCUGUUGUGGC [salish99_SSNG3_R04_010] (Eterna round: R96, puzzle: Same State NG 3)”, the “apparent KD of MS2 coat protein” value stood at 19.7 nM (input ligand: FMN 200 uM), 21.2 nM under setting [1] and 30 nM (input ligand: none).
Taken in the same sequence, the figures for “ACAUGAGAUUGAGGAUAUAUUGUACCUACAUGUGACAUGAGGAUCACCCAUGUGGUAAGUAUGACAUAGAAGGCAAAGAUAUGU [Equivalance 81 - Jieux - Same State NG 2] (Eterna round: R96, puzzle: Same State NG 2)” were 87.1 nM, 54.1 nM and 74.4 nM.
Consider “GUUAUACAUGAGGAUCACCCAUGUCAAUGUAGUCGAGGAUAUGGGCAGCUAUGAGGCGUACUAGAAGGCGAAGAGG [JL-ss1-3.11 ViennaUCT mod] (puzzle: Same State 1)”, for which the “apparent KD of MS2 coat protein” value under setting [2] was 81.6 nM, the “apparent KD of MS2 coat protein” value under setting [3] was determined as 234 nM and the “apparent KD of MS2 coat protein” value under setting [4] was found to be 197 nM.
